This note sets out measurements from article PMC3082182 (The Journal of Cell Biology, 2011).

The assay addresses GST–FL Rngo (Drosophila melanogaster, UniProt Q9VXF9 1-458). Put plainly: pull-down.

B1: FL MBP-Rpn10 (natural protein)
chain: MVLESTMICFDNSDFQRNGDYFPTRLIVQRDGINLVCLTKLRSNPENNVGLMTLSNTVEVLATLTSDAGRIFSKMHLVQPKGEINLLTGIRIAHLVLKHRQGKNHKMRIVVFVGSPINHEEGDLVKQAKRLKKEKVNVDIVSFGDHGNNNEILTAFINALNGKDGTGSHLVSVPRGSVLSDALLSSPIIQGEDGMGGAGLGGNVFEFGVDPNEDPELALALRVSMEEQRQRQESEQRRANPDGAPPTGGDAGGGGGVSGSGPGNEESAGAENEANTEEAMLQRALALSTETPEDNLPDFANMTEEEQIAFAMQMSMQDAPDDSVTQQAKRPKTDEANAPMDVDEDYSEVIGDPAFLQSVLENLPGVDPQSEAVRDAVGSLNKDKDKKSDGKDSQKK
For the molecule B1, the binding result is reported as “binds”.
